Assay results reported in the DeepSol protein solubility set.

Experiment: soluble on expression in E. coli; label from the status in PepcDB or PDB records

| Sequence | soluble on expression in E. coli |
| --- | --- |
| MGSDKIHHHHHHMSTNTTSHSTTHSTISSQAVVIKQADFIESIADSLQYISYYHPKDFVDAMTKAYEREESAAAKDAIAQILINSRMSAEGKRPLCQDTGIVTTFVKIGMSVQWDKTDMTVQEMVDEGVRRAYTNPDNPLRASIVSDPAGARKNTKDNTPSVVHIDMVAGNQIEVMIAAKGGGSENKSKMAMLNPSDDIAAWVEKTLPTMGAGWCPPGMLGIGIGGTAEKAAVLAKESLMDPVDIHELMARGAETTEEKLRLDIFERANNLGIGAQGLGGLTTVLDVKIKSVPTHAASKPVVMIPNCAATRHVHFHLDGTGPVDLVPPSLSDWPEITREAGENTHRVNLDTVTQAEIETWKSGDTLLLNGKMLTGRDAAHKRIQMLLESGEGLPAGVDFTGKFIYYVGPVDPVGDEVVGPAGPTTATRMDKFTDMMLDQTGLMGMIGKSERGPETVASIKKHKAVYLMAVGGAAYLVSKAIKKSRVVAFEDLGMEAIYEFDVQDMPVTVAVDTNGVNAHETGPAIWKINIANSKANK | not soluble |
| GSHMYEYPVFSHVQAGMFSPELRTFTKGDAERWVSTTKKASDSAFWLEVEGNSMTTPTGSKTSFPDGMLILVDPEQAVEPGDFCIARLGGDEFTFKKLIRDSGQVFLQPLNPQYPMIPCNESCSVVGKVIASQ | soluble |
| GSHNLACPTPKEDGLAQQQTQLNLRSLLVNPEGPTLMRLNSVQSSERPLFLVHPIEGSTTVFHSLASRLSIPTYGLQCTRAAPLDSIHSLAAYYIDCIRQVQPEGPYRVAGYSYGACVAFEMCSQLQAQQSPAPTHNSLFLFDGSPTYVLAYTQSYRAKLTPGCEAEAETEAICFFVQQFTDMEHNRVLEALLPLKGLEERVAAAVDLIIKSHQGLDRQELSFAARSFYYKLRAAEQYTPKAKYHGNVMLLRAKTGGAYGEDLGADYNLSQVCDGKVSVHVIEGDHRTLLEGSGLESIISIIHSSLAEPRVSVREG | soluble |
| MKPLSSPLQQYWQTIVERLPEPLAEESLSAQAKSVLTFSDFVQDSISAHPEWLTELESQPPQADEWQHYVAWLQEALINVSDEAGLMRELRLFRRRIMVRIAWAQTLALVTEESILQQLSYLAETLIVAARDWLYDACCREWGTPCNAQGEAQPLLILGMGKLGGGELNFSSDIDLIFAWPEHGCTQGGRWELDNAQFFTRMGQRLIKVLDQPTQDGFVYRVDMRLRPFGESGPLVLSFAALEDYYQEQGRDWERYAMVKARIMGDSEGVYANELRAMLRPFVFRRYIDFSVIQSLRNMKGMIAREVRRRGLTDNIKLGAGGIREIEFIVQVFQLIRGGREPSLQSRSLLPTLSVIAALHLLSENDAEQLRVAYLFLRRLENLLQSINDEQTQTLPSDELNRARLAWAMDFADWPQLTGALTAHMTNVRRVFNELIGDDESETQEESLSEQWRELWQDALQEDDTTPVLAHLSEDDRKQVLTLIADFRKELDKRTIGPRGRQVLDHLMPHLLSDVCAREDAAVTLLRITALLAGIVTRTTYLELLSEFPAALKHLISLCAASPMIASQLARYPLLLDELLDPNTLYQPTATDAYRDELRQYLLRVPEDDEEQQLEALRQFKQAQLLRIAAADIAGTLPVMKVSDHLTWLAEAMIDAVVQQAWVQMVARYGKPNHLNEREGRGFAVVGYGKLGGWELGYSSDLDLIFLHDCPMDAMTDGEREIDGRQFYLRLAQRIMHLFSTRTSSGILYEVDARLRPSGAAGMLVTSTEAFADYQKNEAWTWEHQALVRARVVYGDPQLTAHFDAVRREIMTLPREGKTLQTEVREMREKMRAHLGNKHRDRFDIKADEGGITDIEFITQYLVLRYAHEKPKLTRWSDNVRILELLAQNDIMEEQEAMALTRAYTTLRDELHHLALQELPGHVPEDCFTAERELVRASWQKWLVEE | not soluble |
| MSLRVRQIDRREWLLAQTATECQRHGREATLEYPTRQGMWVRLSDAEKRWSAWIKPGDWLEHVSPALAGAAVSAGAEHLVVPWLAATERPFELPVPHLSCRRLCVENPVPGSALPEGKLLHIMSDRGGLWFEHLPELPAVGGGRPKMLRWPLRFVIGSSDTQRSLLGRIGIGDVLLIRTSRAEVYCYAKKLGHFNRVEGGIIVETLDIQHIEEENNTTETAETLPGLNQLPVKLEFVLYRKNVTLAELEAMGQQQLLSLPTNAELNVEIMANGVLLGNGELVQMNDTLGVEIHEWLSESGNGE | not soluble |
| MAHHHHHHMYNILQFVLKAYSIQNEEPSCDVENVKDLLNDQLCYVLYNITNYSSKYQWILILWAPEKNSILIDDIHENKEKKNNFIHIVDKEIYKYNNASKKINKLLYYSFKQNFLDIIFNNYDIPLFEINNFVMLEKCIHDCNNKYYNYTNCPTLLNREKTKPKNDSFDIYNQYNLQKYYLLNIQLRSINNIIILNESSLCHDMKRLLEEPNICLNLFYIDVHNYKIISTHLNIDNIEQVHSIIKENKIFYVIYKVLDTYTFFYICNEICTNTKQKFLYSFFKPYLLEYLKKIKNIPIFLSIELSKTKHLIRFINADLKKNKNKNSN | soluble |
| MGSDKIHHHHHHMKNHTYKEIKNIYGKISPFEFKDKLIDIAKYTAKENNRELLDAGRGNPNWTCSTAREAFFTFGHFAITETRSNWDLGHLAGMPQKKGIKERFFKFINENIDMPGAYLARDIINFGINELGFDGDEFVHELADGIIGDNYPLPDRMLPHMEKIVHDYLVQEMKYDISGKYGDVEIFAVEGATAAMCYIFDSLMANELLKKGDTIALMTPIFTPYLEIPNLPRYDFKVVNINANEVDEKGAHTWQYTKKELEKLRDKSIKALFVVNPNNPASIAMDETSCNNLIDVIENYNKDLMIISDDVYGTFVEDFSSLMSKLPYNTVGVYSYSKYFGVTGWRLGTFALHKKNVFDKKINDLTGELKKSVDKRYSDMSLNPSSLSFMERVVADSRLVALNHTAGLSTPQQVQMAFFSAFALIDKVDAYKKLNMSICHRRQKLLFEALELPINENKNNAAYYTQFDIEEWAKLNYGEDLFKFISKTASPVDVLYKLANDYSVVLLSGNGFYGPEWSIRISLANLYDEAYTKIGKAIREILNGYIVEWQKIKK | not soluble |
| MSLAYQSEYALENEMMNQLEQLGYERVTIRDNKQLLDNFRTILNERHADKLEGNPLTDKEFQRLLTMIDGKSIFESARILRDKLPLRRDDESEIYLSFLDTKSWCKNKFQVTNQVSVEDTYKARYDVTILINGLPLVQVELKRRGIDINEAFNQVKRYRKQNYTGLFRYIQMFIISNGVETRYFSNNDSELLKSHMFYWSDEGHHHHHH | not soluble |
| VIDSMTSTDLLPEEPKWVPLSSESIQQYVDEGKVVFVDVTADWCVTCKANKIGVLLQEPVYSELNSANVVPMQGDWTVPSEKITSYLQEHGRFGVPFNVVYGPSAPNGIELPVILNEKVVMDAIKKAGNK | soluble |
| MIVHVVKRGETLWQLAQRYGVPLERIVAANELSDPNRLAVGQALVIPVPYRYHTVRTGETLWQIARQYGVAVEAIIQANRITNPSLLYPGTTLFIPARIHTVRSGETLAQIASFYGVTVQQLIEVNDITDPNRIVPGQRLIIPPAKPLIEVNAFTVDQGEKGAEQVREVGRHLTYAAPFAYTIRADGGLNPINDTAFIQAAYAARVVPMMTITNFTYQDPGSRLAQMILADVALQTRLLDNVIQVMRAKGYRTLNVDFENVYPSDRKRYNEFLQRAANRLHAEGYVLSTSLAPKISAEQKGLLYEAHDYPAHGRIADFVVLMTYEWGYRFGPPQAISPVNQIRRVLDYAVTAIPRSKIMMGFQIYARDWVLPHVQGQEAETFSPKEALERAVRYGASIQYDAAAASPFYRYTDEQGRQHEVWFEDARSALAKFELVKEYGLRGISYWVLGYPYPENWVLLEDNFRIRKRG | not soluble |
| MREGWRDEPAARGGCQCGRVRYSVPAGPKKSTVCHCRMCQRATGNAFAPLLEVPTADVVWEGTPAVWASSSVAERGFCATCGTPLFYRSDETTELMAGTLAGFDFRPIANHGIEGRVGWLGGLAALPDRATRPELLSRVVSHQAPDE | not soluble |
| LEIPTSTVVKETLTQLSAHRALLTSNETLRLPVPTHKNHQLCIGEIFQGLDILKNQTVRGGTVERLFQNLSLIKKYIDRQKEKCGEERRRTRQFLDYLQEFLGVLSTEWAIEG | soluble |
| LESLEVMIMLDTLRAINNPLNDYALVALLRSPMFNFNEDDLTRIAVQADKGQFYDKLLAAHTKSGLHPEVVMQGLEAKLTLFTETLADWRDYSKCHSIYDLIWKIYNDRFYYDYVGGLPRAEQRQANLYALALRANAYEKTGFKGLSRFIGMI | not soluble |
| MSTQMSVFLSTQAAQPQWGEKALISFAEQGATIHLQQTQDFSAIQRAARKLDNQGIRTAFLAGEGWDLESIWAFYQGYRDAKKRNTVEWKALAAAEQVELEARIKATDWTRDIINKSAEEVAPRQLATMAAEFIKSLAPDHVSYRIVKDKDLLTEGWEGIYAVGRGSERTSAMLQLDYNPTGDENAPVFACLVGKGITFDSGGYSLKPSNMMSAMKADMGGSGMITGALGLAIMRGFNKRVKLILCCAENMVSGRALKLGDIITYKNGKTVEIMNTDAEGRLVLADGLIYASEQKPQLIIDCATLTGAAKNALGNDYHALLSYDESLSQQALAAAKEENEALWALPLAEFHREMLPSNFADLSNISNGDYTPGASTAAAFLSYFVEGYQKGWLHFDCSATYRKSASDKWAAGATGMGVKMLARILMQQA | not soluble |
| GSARPKLRVVTLVEHPFVFTRESDEDGQCPAGQLCLDPGTNDSARLDALFAALVNGSVPRTLRRCCYGYCIDLLERLAEDLAFDFELYIVGDGKYGALRDGRWTGLVGDLLAGRAHMAVTSFSINSARSQVVDFTSPFFSTSLGIMVRTRGTELSGIHDPKLHHPSQGFRFGTVWESSAEAYIKASFPEMHAHMRRHSAPTTPHGVAMLTSDPPKLNAFIMDKSLLDYEVSIDADCKLLTVGKPFAIEGYGIGLPQNSPLTSNLSEFISRYKSSGFIDLLHDKWYKMVPCGK | soluble |
| MRSRRGLLIVLSGPSGVGKGTVRKELFSHEDTRFQYSISVTTRKPREGEVDGVDYFFKEREEFEEMIRNEKLLEWAEFVGNYYGTPIDYVEKTLQEGKDVFLEIEVQGAIQVKKAFPEGVFIFLAPPSLSELKNRIVGRGTETEDVIENRLTVAKEEIDMMDAYDYVVENDQVELACERIKAIVVGEHCRRERVAKYYKEMTEGL | not soluble |
| MSLRITRLTVFHLDLPLAKPYWLSGGRLKFDRLDSTYLRIDTDEGVTGWGEGCPWGHSYLPAHGPGLRAGIATLAPHLLGLDPRSLDHVNRVMDLQLPGHSYVKSPIDMACWDILGQVAGLPLWQLLGGEAATPVPINSSISTGTPDQMLGLIAEAAAQGYRTHSAKIGGSDPAQDIARIEAISAGLPDGHRVTFDVNRAWTPAIAVEVLNSVRARDWIEQPCQTLDQCAHVARRVANPIMLDECLHEFSDHLAAWSRGACEGVKIKPNRVGGLTRARQIRDFGVSVGWQMHIEDVGGTALADTAALHLAASTPEANRLASWLGHAHLADDPIPGQGARNRDGLATPPSAPGLGVIPDPEALGRPVASYDEGHHHHHH | soluble |
| MGSDKIHHHHHHMKYPNETSGTADYTVIKGLVTSNGDTGHDSIALDTATQLTAEDVKHFRDYGFSIVGRYLTGTVGTDYKPKNLTSTEIKTILDGGMKFFPIYEDGGYVESYFTASQGQKDAQTAIKTALDLELPAGTVIYFAVDVDFQDGDIDGTVIPYIKAIQNILSQSIYKTGIYGTRNVCLHAERVGIGFSFVANMSYGWSGNLGFKMPDNWAFDQFVEYPIYGIDIDQTASSGLDKGISGVAQTTPEVQTGYLANQLLSVFPDYHNLFGTINWTVSAPEQHLSTPIADYYITLEDKWIATVVDDKTGTLTIQDAKMLNQTADVMKQFESAMSSYDIGDLSGAFNKLAPMIGNGAIKAGLAIRDGMVGFKIAIEGSFESSTSSSSVEGKYTLTLETYIHRDQVPKNAYDPVYQPVTEPNPVFAVDLGKVATTVVIGLLVSSMLPEVGGGAALVELFNVVKTIFAVA | not soluble |
